Experimental findings from the nanobody polyreactivity screen of Harvey et al. (2022) are described below.

A short description of the data set: yeast display, Sf9 membrane polyspecificity reagent, FACS + sequencing; frameworks hold sequencing errors. In short, it runs like this: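 Sorting gates, low and high (top ~1%), were placed on anti-HA fluorescence to track expression and on streptavidin fluorescence to track reagent binding. A clone's polyreactivity label is taken from the gate it came out of. The reagent was 10% biotinylated, detergent-solubilized Sf9 membrane, applied for 1 hour at 4 °C to galactose-induced yeast display cells.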
Consider “QVQLVESGGGLVQAGGSLRLSCAASRSTFYLNAMGWYRQAPGKERELVAAISSGGRTYYADSVKGRFTISRDNAKNTVYLQMNSLKPVDTAVYYCNAVRYLRGAYNYWGQGTQVTVSS”, for which the “polyreactivity (PSR sort gate)” value is “high polyreactivity”.
The value for “QVQLVESGGGLVQAGGSLRLSCAASGRTFPPYAMGWYRQGPGKERELVASIRRGGSTHYADSVKRRFTISRDNAKNTVYLQMNSLQPEDTAVYYCAAYYGGWSTYGAGYGGFYYWGQGTQVTVSS” was “high polyreactivity”.
For “QVQLVESGGRLVQGRGSLRLSCAASGRTFHIYDIGWYRQAPGKERELVAAIRGRSGSTYYADSVKGRFTISRDNAKNNDYLQMNSLTPEDNAVYYCAAENLGRFVASEYDYWGQGTQVTVSS”, the “polyreactivity (PSR sort gate)” value was “high polyreactivity”.
With “QVQLVESGGGLVQAGGSLRLSCAASGSTFTWYAMGWYRQAPGKEGELVAAISRGGSTNYADSVKGRFTISRDNAKNTVYLQMNSLKPEDTAVYYCAAESYWRDDYWGQGTQVTVSS”, the “polyreactivity (PSR sort gate)” value was “low polyreactivity”.
“QVQLVESGGGLVQAGGSLRLSCAASGITFDTYAMGWYRQAPGKERELVAAISKSGGSPYYADSVKARFTISRDNAKNTVYLQMNSLKPEDTAVNYCNARYRHSGRYWDWYYYWGQGTQVTVSS”: the “polyreactivity (PSR sort gate)” value was “high polyreactivity”.
For “QVQLVESGGGLVQAGGSLRLSCAASGIILYPNAMVWYRQAPGKERELVAGITRSGVSTYYADSVKGRFTISRDNAKNTVYLQMNSLNPEDTAVYYCAKDRIYGSKGEDDDYWGQGTQVTVSS”, the “polyreactivity (PSR sort gate)” value is “low polyreactivity”.
On to “QVQLVESGGGLVQAGGSLRLSCAASGLIFYDNMGWYRQAPGKERELVAAISSSGGSTSYADSVKGRFTISRDNAKNTVYLQMNSLKPVDTAVYYCAADSYPAYLGFVGFDYWGQGTQVTVSS”, for which the “polyreactivity (PSR sort gate)” value is “low polyreactivity”.
As for “QVQLVESGGGLVQAGGSLRLSCAASGRIFRWYGMGWYRQAPRKERELFAAISGRGGSTYYADSVKGRFTISRDIAKNTVYLQMNSLKPEDSGVYYCKKDPYYIYRPGSGQGYAFNYWGQGTQVTVSS”, the “polyreactivity (PSR sort gate)” value is given as “high polyreactivity”.
For the sequence “QVQLVESVGGLVQAGGSLRLSCAASGSTISLYKGWYRQAPGNETELVAAITYSGGRTYYADSVKGRFTISRDNAKNTVYLQMNSLKPEDTAVYYCATVFNDLTVYEYWSRFDYWGQGTQVTVSS”, the “polyreactivity (PSR sort gate)” value is given as “low polyreactivity”.
The value for “QVQLVESGGGLVQAGGSLRLICDASGRIFPWYTMGWYRQAPGKERELVAAITSGGNKDYADSVKGRFTISRDYAKNTVFLQMNSLKPEDTAVYYCAAGPDPLGEDYWGQGTQVTVSS” was “low polyreactivity”; that for “QVQLVESGGGLVQAGGSLSLSCASTGFIITQNAMGWYRQAHGKERYLVAAISWRAGSTYYADSVKGRFTISRDNAKNTVYLQMNSLKPEDTAVYYCATRQTKYSNYRGDYWGQGTQVTVSS” was “high polyreactivity”; that for “QVQLVESGGGLVQAGGSLRLSCAASGITFYDYAMGWYRQAPGKERELVAAISDSGGITYYADSVKGRFTISRDNAKNTVYLQMNSLKPEDTAVYFCAAEDQLNRDYWGQGTQVTVSS” was “high polyreactivity”.
For the sequence “TYRGTTTYYADSVKGRFPIARDYAKNTVYLQMHSLKPEETAVYNWTRYYPSEYDYWGQGTHVTVSS”, the “polyreactivity (PSR sort gate)” value is listed as “high polyreactivity”.
For “HVQLVESGGGIVQAGGILRLSCAASGRIFSVYTMGWYRKAPGQERELVAAISSGASTNYADSVKGRFTISRDNAKNTVYLQMNSLKPEDTAVYYCAKEYGIYTDTPYYYWGQGTQVTVSS” the value was “low polyreactivity”; for “QIHLVESGGGLVQAGGSLRLSCAASGGIFYINAMGWYRQAPGKEREFVAAITESSDITYYADSVKGRFTISRDNAKNTVYLQMNSLKPEDSAVYYCAAEFVRSGDDYWGQGTQVTVSS”, “low polyreactivity”.
For “QVQLVKSGGGLVQAGGSLRLSCAASGGTFSFYTMGWYRQAPGKERELVAAIDSTGRTNYADSVKGRFTISRDNANHTVYLQMNSLKPEDTAVYYCAAGPPRADYDYWGQGTQVNVSS” the value was “low polyreactivity”.
For “QVQLVESGGGLVQAGGSLRLSCAASGNTFGTYVMGWYRPAPGKERELVAAISQSGGSTDYADSVKGRFTISRDNAKKTVYLQMNSLKPEDTAVYYCAKVTWGTVWYRSPSEYDYWGQGTQVTVSS” the value was “low polyreactivity”.
Take “QVQLVESGGGLVQAGGSLRLSCAASGSIFQYYAMGWYRQAPGKERELVAAISSGDTTNYADSVKGRFTISRDNAKNTVYLQMNSLKPEDTAVYYCNAEGGWYDWDDYWGQGTQVTVSS”: the “polyreactivity (PSR sort gate)” value is on record as “low polyreactivity”.
For “QVQLVESGGGLVQAGGSLRLSCAASGSIIRGNAMGWYRQAPGKERELVAAISKRGGSTYYADSVKGRFTISRDNAKNTVYLQMNSLKPEDTAVYYCASDLPAALGFDYWGQGTQVTVSS” the value was “high polyreactivity”; for “QVQLVESGGGLVQAGGSLRLSCAASGFIFVPYAMGWYRQAPGQERELVAAISSSGGSTNYTDSVKGRFTISRDNAKNSVYLQMNRLKPEDTAVYYCAAATWYVNPTHFNRYSEFYYWGQGTQVTVSS”, “low polyreactivity”.
For “QVQLVESGGGLVQAGGSLRLSCAASGIIFSIYAMGWYRQAPGKERELVAAISGRGGRTYYADSVKGRFTISRDNAKNTVYLQMNSLKPVDTAVYYCNAEYHDLYDYWGQGTQVTVSS”, the “polyreactivity (PSR sort gate)” value is given as “low polyreactivity”.
With “QVQLVESGGGLVQAGGSLRLSCAASGSTFEYYAMGWYRQAPGKERELVATITLIAGSTYADSVKGRFTISRDNAKNTVYLQMNSLKPEDTAVYYCAADDGGYESPEFVYGGRGDYWGQGTQVTVSS”, the “polyreactivity (PSR sort gate)” value is on record as “low polyreactivity”.
Take “QAQLQESGGSLVQAGGGLRLSCAASGYSSVGSVMGWYRQAPSKEREHVASIDQGANTNYADSVKGRFTISRDNAKNNVYLQMTSLKPEDTAVYYCATETTYILNYWGQGTQVTVSS”: the “polyreactivity (PSR sort gate)” value is recorded as “low polyreactivity”.
Regarding “QVQLVESGGGLVQAGGSLRLSCAASGSIFRYNAMGWYRQAPGKERELVAAIRSGGSTYYADSVKGRFTISRDNAKNTVYLQMNSLKPEDTAVYYCNARRYVGYDYWGQGTQVTVSS”, the “polyreactivity (PSR sort gate)” value is on record as “high polyreactivity”.
With “QVQLVESGGGLVQAGGSLRLSCAASGSTLAPYAMGGYRQAPGKERELVASINWGGTTTYYADSVKGRFTISRDNAKNTVYLQMNSLIPEDTAVYYCAALGLRWGRSGYYYEYYYWGQGTQVTVSS”, the “polyreactivity (PSR sort gate)” value is given as “high polyreactivity”.
For “QVQLVESGGGLVQAGGSLRLSCAASGFIFGTYAMGWYRQAPGNERELVAAISVGGGSTYYADSVKGRFTISRDNAKNTVYLQMNSLKPEDTAVYYCAAVQLYQKHQITYVAHEYWGQGTQVTVSS” the value was “low polyreactivity”.
Consider “QVQLVQSRGGLVQAGGSLRLSCAASGYIFWYYVKGWNRQAPGKERELVASITIGGGRTYYADSVKGRFTISRDFAKNSVYLQMNCMKPEDTAVYYCAAVTTPYNSDFDYWGQGTQVTVSS”, for which the “polyreactivity (PSR sort gate)” value is “low polyreactivity”.
In the case of “QVQLEESGGGLVQAGGSLRLSCAASGSTYPSNAMGWYRQATGKERELVATITTGGSTYYADSVKGRFTISRDNAKNTVYLQMNSLKPEDTAVYYCNAEYVYLIFSVYLYDYDYWGLGTQVTVSS”, the “polyreactivity (PSR sort gate)” value is “low polyreactivity”.
Turning to “QVQLVESGGGLVQAGGSLRLSCAASGIIIAYYAMGWYRQAPGKERVLVATISSGGRTKYADSVKGRFTISRDNAKNTVYLQMNSLKPEDTAVYYCNTDRYFRRYYWYDYWGQGTQVTVSS”, the “polyreactivity (PSR sort gate)” value is “high polyreactivity”.
For “QVQLVESGGGLVQAGGSLRLSSAASGRNFYANAMGWSRQAPGKERYFVAAISWGGGSTNYADSVKGRFTISRDNAKNTGYLQKNSQKPEDTAVYYCATGFYYYLTKTIPYEYEYWGLGTQVTVSS”, the “polyreactivity (PSR sort gate)” value is listed as “low polyreactivity”.
As to “QVQLVESGGGLVQAGGSLRLSCAASGFTFGRYAMGWYRQAPGKERELVAAISRGGSTYYADSVKGRFTISRDNAKNTVYLQMNSLKPEDTAVYYCNKGDSKEYDVYYWGQGTQVTVSS”, the “polyreactivity (PSR sort gate)” value is given as “low polyreactivity”.
Consider “QVQLVESGGGLVQAGGSLRLSCAASGSTFYRYALGWYRQAPGKEREFVAAISRSGGSTNYADSVKGRFTISRDNAKNTVYLQMNSMKPEDTAVYYCAAKYSDYQYGRYYYWGQGTQVTVSS”, for which the “polyreactivity (PSR sort gate)” value is listed as “high polyreactivity”.
As for “QVQLVESGGGLVQAGGSLRLSCAASGINFRYYAMGWYRQAPGKERELVARISTRGGSTYYADSVKGRFTISRDNAKNTVYLQMNSLKPEDTAVYYCAAVNGLYYHKYGYYWGQGTQVTVSS”, the “polyreactivity (PSR sort gate)” value was “high polyreactivity”.
As for “QVQLVESGGGLVQAGGSLRLSCAAYGGIFSYNAKGWYSQAPGKEREFVASISSSGGRTYYADSVKGRFTISRDNAQNTVYLQMKSLKPEDTAVYYCAKRGQLRHYSWGQGTQVTVSS”, the “polyreactivity (PSR sort gate)” value was “low polyreactivity”.
With “QVQLVESGGGLVQAGGSLRLSCAASGSTFWYYAMGWYRQAPGKERELVADITYSGVSTYYADSVKGRFTISRDNAKNTVYLQMNSLKPEDTAVYYCNADWGSVNGYSGYYYWGQGTQVNVSS”, the “polyreactivity (PSR sort gate)” value is recorded as “low polyreactivity”.
For “QVQLVESGGGLVQAGGSLRLSCAASGRILHRYVMGWYRQAPGKERELVAAISSGGSTTYADSVKGRFTISRDNAKYTVYLQMNSLKPEDTAVYYCAADARYSRRYYYWGQGTQVTVSS”, the “polyreactivity (PSR sort gate)” value is “low polyreactivity”.
Regarding “QVQLVESGVGLVQAGGSLRLSCAASGSNFNTYTMGRYRQAPGKERELVAAITWSGGRTYYADSVKGRFTISRDNAKNTVYLQMNSLKPEDTAGYYCAADWGEDYTRDDYWGQGTQVTVSS”, the “polyreactivity (PSR sort gate)” value is recorded as “low polyreactivity”.
Turning to “QVQLVESGGGLVQAGGSIRLSCAASGNTFRWYAMGWYRQAPGKEREFVAAISSSGGSTYYADSVKGRFTISRDNAKNTVYLQMNSLKPEDTAVYYCTAASVTRHVSFATDYEYWGQGTQVTVSS”, the “polyreactivity (PSR sort gate)” value is “high polyreactivity”.
Take “QVQLVESGGGLVQAGGSLRLSCAASGRIIAYYAMGWYRQAPGKERELVAGINSGGGSTYYADSVKGRFTISRDNAKNTVYLQMNSLKPEDTAVYYCAARAGGVDGYDYWGQGTQVTVSS”: the “polyreactivity (PSR sort gate)” value was “high polyreactivity”.
The value for “QVQLVESGGGLVQAGGSLRLSCAASGSTFNRNAMGWYRHAPGKERELVATISTGGVSTYYADSVKGRFTISRDNAKNTVYLQMNSLKPEDTAVYYCAKRTVYLSNLDYWGQGTQVTVSS” was “low polyreactivity”; that for “QVQLVESGGGLVQAGGSLRLSCAASGFTFNCYAMGWYRQAPGKERELVARIRWRGSTYYADSVKGRFTISRDNAKNTVYLQMNSLKPEDTAVYYCAARYYTKLYWGQGTQVTVSS” was “high polyreactivity”.
